The text below walks through data of publication PMC314469, “Protein Interaction Networks by Proteome Peptide Scanning” (PLoS Biology, 2004).

The labels stand for the following.
T1: Myo5 SH3 (MYO5_YEAST), Q04439
T1 chain: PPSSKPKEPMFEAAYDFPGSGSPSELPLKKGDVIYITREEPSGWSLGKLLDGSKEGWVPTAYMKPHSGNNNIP

T2: Yfr024 SH3 (LSB3_YEAST), P43603
T2 chain: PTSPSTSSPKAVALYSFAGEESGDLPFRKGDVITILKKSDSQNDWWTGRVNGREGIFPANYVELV

T3: Yhr016c SH3 (YSC84_YEAST), P32793
T3 chain: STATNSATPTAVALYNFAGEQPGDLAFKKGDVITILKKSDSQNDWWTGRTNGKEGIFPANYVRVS

T4: Boi2 SH3 (BOI2_YEAST), P39969
T4 chain: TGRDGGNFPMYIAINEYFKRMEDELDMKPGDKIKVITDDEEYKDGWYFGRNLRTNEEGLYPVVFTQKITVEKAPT

T5: Rvs167 SH3 (RV167_YEAST), P39743
T5 chain: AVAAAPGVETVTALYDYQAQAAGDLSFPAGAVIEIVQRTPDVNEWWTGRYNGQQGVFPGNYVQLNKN

T6: Boi1 SH3 (BOI1_YEAST), P38041
T6 chain: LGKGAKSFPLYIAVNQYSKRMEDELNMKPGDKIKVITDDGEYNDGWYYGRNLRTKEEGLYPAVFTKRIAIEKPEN

B1: YER114C 436-449 (peptide)
chain: FVSPRRAPKPPSYP
B2: YGL195W 1152-1165 (peptide)
chain: FYKEKAKPLEPILD
B3: YPR151C 52-65 (peptide)
chain: FYDFRSLPKVPTTQ
B4: YNL094W 196-209 (peptide)
chain: GFLSKKVPNTPVVV
B5: YML104C 41-54 (peptide)
chain: FVFFKSLPDLPKPQ
B6: YOR116C 826-839 (peptide)
chain: GFQDRSLPHFPKNS
B7: YPR117W 1311-1324 (peptide)
chain: GDEERFLPNRPHYE
B8: YPL277C 154-167 (peptide)
chain: GDHPKGPPPPPPPP
B9: YJR122W 473-486 (peptide)
chain: GENIKITPQKPFWF
B10: YBR214W 193-206 (peptide)
chain: GEMVKLTPKNPFYK
B11: YOR389W 154-167 (peptide)
chain: GDHPKGPPPPPPPD

Chain of Sho1 SH3 (SHO1_YEAST), P40073 (P40073 295-366): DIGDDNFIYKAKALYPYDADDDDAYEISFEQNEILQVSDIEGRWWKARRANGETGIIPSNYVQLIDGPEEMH

One test concerns the target Sho1 SH3 (SHO1_YEAST), P40073. Put plainly: SPOT array.
On to B1, for which the normalised SPOT signal, Boehringer light units (BLU); mean over the file's lines of this peptide turned out to be 96.2.

For B2, the normalised SPOT signal, Boehringer light units (BLU); mean over the file's lines of this peptide amounted to 62.7.

In turn, B3 had a normalised SPOT signal, Boehringer light units (BLU); mean over the file's lines of this peptide of 30200.

Regarding B4, the normalised SPOT signal, Boehringer light units (BLU); mean over the file's lines of this peptide was 47.5.

The molecule B5 registered a normalised SPOT signal, Boehringer light units (BLU); mean over the file's lines of this peptide of 35800.

B6: the normalised SPOT signal, Boehringer light units (BLU); mean over the file's lines of this peptide is 5160.

B7 yielded a normalised SPOT signal, Boehringer light units (BLU); mean over the file's lines of this peptide of 37.9.

Turning to B8, the normalised SPOT signal, Boehringer light units (BLU); mean over the file's lines of this peptide turned out to be 6.3.

With B9, the normalised SPOT signal, Boehringer light units (BLU); mean over the file's lines of this peptide is 46.

B10 gave a normalised SPOT signal, Boehringer light units (BLU); mean over the file's lines of this peptide of 60.2.

In turn, B11 yielded a normalised SPOT signal, Boehringer light units (BLU); mean over the file's lines of this peptide of 28.1.

The target in another test is T1, Myo5 SH3 (MYO5_YEAST), Q04439. Put plainly: SPOT array.
In turn, B1 returned a normalised SPOT signal, Boehringer light units (BLU); mean over the file's lines of this peptide of 1580.

B2: the normalised SPOT signal, Boehringer light units (BLU); mean over the file's lines of this peptide was determined as 87.7.

Molecule B3 came in with a normalised SPOT signal, Boehringer light units (BLU); mean over the file's lines of this peptide of 337.

The molecule B4 gave a normalised SPOT signal, Boehringer light units (BLU); mean over the file's lines of this peptide of 71.3.

B5 showed a normalised SPOT signal, Boehringer light units (BLU); mean over the file's lines of this peptide of 860.

B6 showed a normalised SPOT signal, Boehringer light units (BLU); mean over the file's lines of this peptide of 178.

In turn, B7 had a normalised SPOT signal, Boehringer light units (BLU); mean over the file's lines of this peptide of 126.

The molecule B8 gave a normalised SPOT signal, Boehringer light units (BLU); mean over the file's lines of this peptide of 20200.

Take B9: the normalised SPOT signal, Boehringer light units (BLU); mean over the file's lines of this peptide was 115.

For B10, the normalised SPOT signal, Boehringer light units (BLU); mean over the file's lines of this peptide is 408.

Consider B11, for which the normalised SPOT signal, Boehringer light units (BLU); mean over the file's lines of this peptide is 40100.

The target of another test is T2, Yfr024 SH3 (LSB3_YEAST), P43603. Description: SPOT array.
In the case of B1, the normalised SPOT signal, Boehringer light units (BLU); mean over the file's lines of this peptide is 826.

The molecule B2 displayed a normalised SPOT signal, Boehringer light units (BLU); mean over the file's lines of this peptide of 0.

As to B3, the normalised SPOT signal, Boehringer light units (BLU); mean over the file's lines of this peptide is 3030.

Molecule B4 showed a normalised SPOT signal, Boehringer light units (BLU); mean over the file's lines of this peptide of 81.6.

On to B5, for which the normalised SPOT signal, Boehringer light units (BLU); mean over the file's lines of this peptide worked out at 448.

B6 returned a normalised SPOT signal, Boehringer light units (BLU); mean over the file's lines of this peptide of 180.

The molecule B7 displayed a normalised SPOT signal, Boehringer light units (BLU); mean over the file's lines of this peptide of 1300.

With B8, the normalised SPOT signal, Boehringer light units (BLU); mean over the file's lines of this peptide was 11.5.

With B9, the normalised SPOT signal, Boehringer light units (BLU); mean over the file's lines of this peptide turned out to be 29.7.

For the molecule B10, the normalised SPOT signal, Boehringer light units (BLU); mean over the file's lines of this peptide is 208.

Take B11: the normalised SPOT signal, Boehringer light units (BLU); mean over the file's lines of this peptide is 0.

In another test the target is T3, Yhr016c SH3 (YSC84_YEAST), P32793. Description: SPOT array.
B1 yielded a normalised SPOT signal, Boehringer light units (BLU); mean over the file's lines of this peptide of 70.9.

In turn, B2 gave a normalised SPOT signal, Boehringer light units (BLU); mean over the file's lines of this peptide of 57.

B3: the normalised SPOT signal, Boehringer light units (BLU); mean over the file's lines of this peptide was 496.

With B4, the normalised SPOT signal, Boehringer light units (BLU); mean over the file's lines of this peptide was 24.7.

In turn, B5 displayed a normalised SPOT signal, Boehringer light units (BLU); mean over the file's lines of this peptide of 80.2.

B6: the normalised SPOT signal, Boehringer light units (BLU); mean over the file's lines of this peptide came to 49.7.

In turn, B7 came in with a normalised SPOT signal, Boehringer light units (BLU); mean over the file's lines of this peptide of 653.

B8 registered a normalised SPOT signal, Boehringer light units (BLU); mean over the file's lines of this peptide of 23.3.

For the molecule B9, the normalised SPOT signal, Boehringer light units (BLU); mean over the file's lines of this peptide is 33.

Molecule B10 came in with a normalised SPOT signal, Boehringer light units (BLU); mean over the file's lines of this peptide of 44.4.

With B11, the normalised SPOT signal, Boehringer light units (BLU); mean over the file's lines of this peptide worked out at 3.6.

Another test deals with T4, Boi2 SH3 (BOI2_YEAST), P39969. Description: SPOT array.
B1 displayed a normalised SPOT signal, Boehringer light units (BLU); mean over the file's lines of this peptide of 13.1.

The molecule B2 gave a normalised SPOT signal, Boehringer light units (BLU); mean over the file's lines of this peptide of 27.8.

B3 came in with a normalised SPOT signal, Boehringer light units (BLU); mean over the file's lines of this peptide of 74.9.

Regarding B4, the normalised SPOT signal, Boehringer light units (BLU); mean over the file's lines of this peptide was found to be 5.3.

As for B5, the normalised SPOT signal, Boehringer light units (BLU); mean over the file's lines of this peptide was 8.6.

Molecule B6 registered a normalised SPOT signal, Boehringer light units (BLU); mean over the file's lines of this peptide of 18.7.

On to B7, for which the normalised SPOT signal, Boehringer light units (BLU); mean over the file's lines of this peptide was 34.4.

Take B8: the normalised SPOT signal, Boehringer light units (BLU); mean over the file's lines of this peptide came to 0.3.

In the case of B9, the normalised SPOT signal, Boehringer light units (BLU); mean over the file's lines of this peptide was found to be 35.5.

With B10, the normalised SPOT signal, Boehringer light units (BLU); mean over the file's lines of this peptide came out at 23.6.

Regarding B11, the normalised SPOT signal, Boehringer light units (BLU); mean over the file's lines of this peptide stood at 1.7.

A further test concerns the target T5, Rvs167 SH3 (RV167_YEAST), P39743. Description: SPOT array.
As to B1, the normalised SPOT signal, Boehringer light units (BLU); mean over the file's lines of this peptide amounted to 42.1.

B2 showed a normalised SPOT signal, Boehringer light units (BLU); mean over the file's lines of this peptide of 25.4.

For the molecule B3, the normalised SPOT signal, Boehringer light units (BLU); mean over the file's lines of this peptide stood at 263.

With B4, the normalised SPOT signal, Boehringer light units (BLU); mean over the file's lines of this peptide came to 100.

As to B5, the normalised SPOT signal, Boehringer light units (BLU); mean over the file's lines of this peptide came to 179.

B6 displayed a normalised SPOT signal, Boehringer light units (BLU); mean over the file's lines of this peptide of 240.

Take B7: the normalised SPOT signal, Boehringer light units (BLU); mean over the file's lines of this peptide is 10.7.

In turn, B8 yielded a normalised SPOT signal, Boehringer light units (BLU); mean over the file's lines of this peptide of 10.9.

As for B9, the normalised SPOT signal, Boehringer light units (BLU); mean over the file's lines of this peptide stood at 74.1.

For B10, the normalised SPOT signal, Boehringer light units (BLU); mean over the file's lines of this peptide worked out at 73.6.

As to B11, the normalised SPOT signal, Boehringer light units (BLU); mean over the file's lines of this peptide was 54.8.

A further test has as its target T6, Boi1 SH3 (BOI1_YEAST), P38041. Description: SPOT array.
On to B1, for which the normalised SPOT signal, Boehringer light units (BLU); mean over the file's lines of this peptide stood at 4960.

On to B2, for which the normalised SPOT signal, Boehringer light units (BLU); mean over the file's lines of this peptide was 80.5.

With B3, the normalised SPOT signal, Boehringer light units (BLU); mean over the file's lines of this peptide came out at 4350.

For the molecule B4, the normalised SPOT signal, Boehringer light units (BLU); mean over the file's lines of this peptide was found to be 426.

Molecule B5 displayed a normalised SPOT signal, Boehringer light units (BLU); mean over the file's lines of this peptide of 129.

On to B6, for which the normalised SPOT signal, Boehringer light units (BLU); mean over the file's lines of this peptide worked out at 88.7.

B7 returned a normalised SPOT signal, Boehringer light units (BLU); mean over the file's lines of this peptide of 54.3.

Turning to B8, the normalised SPOT signal, Boehringer light units (BLU); mean over the file's lines of this peptide was determined as 70.

Molecule B9 showed a normalised SPOT signal, Boehringer light units (BLU); mean over the file's lines of this peptide of 82.4.

B10: the normalised SPOT signal, Boehringer light units (BLU); mean over the file's lines of this peptide is 152.

B11 came in with a normalised SPOT signal, Boehringer light units (BLU); mean over the file's lines of this peptide of 30.8.
